Test [1] concerns the target T1, cyTREM2 ECD (19-174)-APP-Avi (cynomolgus).
T1 construct: range 19-174
The experiment in a line: SPR, label free kinetics. On the technique in general: SPR reads the build-up and loss of mass on a sensor chip optically.

The target of test [2] is T2, hTREM2 IgSF-hTREM1 stalk-hFc (human, UniProt Q9NZC2 19-132; Q9NP99 135-205, limits assumed).
T2 construct: domain: IgSF;domain: stalk region; also called hTREM2 IgSF-T1 stalk-hFc-bio; hTREM2 IgSF-hTREM1 stalk-hFc-bio
T2 sequence (looked up): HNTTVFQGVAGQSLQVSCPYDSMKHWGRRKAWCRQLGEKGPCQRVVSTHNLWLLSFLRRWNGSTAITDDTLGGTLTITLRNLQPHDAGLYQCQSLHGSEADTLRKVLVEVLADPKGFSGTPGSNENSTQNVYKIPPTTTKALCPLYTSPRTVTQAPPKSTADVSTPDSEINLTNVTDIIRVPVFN
Put plainly: recombinant protein binding.

For test [3], the target named is T3, human TREM2 on CHO-hDAP12-hTREM2 cells (human, UniProt Q9NZC2 19-230).
T3 sequence: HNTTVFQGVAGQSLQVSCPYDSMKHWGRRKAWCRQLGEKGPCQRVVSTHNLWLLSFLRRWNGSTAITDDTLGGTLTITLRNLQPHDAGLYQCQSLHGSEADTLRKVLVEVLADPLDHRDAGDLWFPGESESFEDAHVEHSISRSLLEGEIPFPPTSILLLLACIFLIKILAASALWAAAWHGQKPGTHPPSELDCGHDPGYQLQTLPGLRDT
Put plainly: cell-based or functional assay.

The target of test [4] is T1, cyTREM2 ECD (19-174)-APP-Avi. The experiment in a line: SET.
The target in test [5] is T4, TREM2 (isoform 3) on transfected HEK293 cells (human).
T4 construct: also called BC032362
T4 chain: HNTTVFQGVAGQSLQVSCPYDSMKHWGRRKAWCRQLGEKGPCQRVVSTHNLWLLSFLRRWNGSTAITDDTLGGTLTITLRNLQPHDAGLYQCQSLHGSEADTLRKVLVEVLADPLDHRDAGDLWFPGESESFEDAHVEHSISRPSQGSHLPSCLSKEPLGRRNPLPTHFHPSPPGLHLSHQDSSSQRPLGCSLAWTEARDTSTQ
Put plainly: plasma membrane protein cell array, HEK293. The method, then: Human HEK293 cells were grown on glass slides and fixed. Test antibodies were added at 2 µg/ml. Slides were subsequently incubated with an AlexaFluor647 labelled anti-human IgG Fc detection antibody, followed by fluorescence imaging.

Test [6] has as its target T1, cyTREM2 ECD (19-174)-APP-Avi. Put plainly: SPR (Biacore).

Results on two molecules are retold here after patent publication US20230167174A1 (Novartis, published 2023).

Bounds are passed on as bounds.

B1: MOR044698 (antibody, V domains shown)
VH: QVQLVQSGAEVKKPGASVKVSCKASGYTFTGYHMSWVRQAPGQGLEWMGVINPVSGNTVYAQKFQGRVTMTRDTSISTAYMELSRLRSEDTAVYYCARIPSYTYAFDYWGQGTLVTVSS
VL: DIQMTQSPSSLSASVGDRVTITCRASQDISNYLAWYQQKPGKAPKLLIYRASSLQSGVPSRFSGSGSGTDFTLTISSLQPEDFATYYCFQYRHMPSQTFGQGTKVEIKR
notes: also called MOR44698; MOR44698A
As to B1, the Kd in test [1] and in test [4] was 0.039 nM in each case. Moreover, in test [2], the S/BG is more than 20. Besides, in test [3], the “Internalization compared to parental after 6 h” value was found to be 1.5 fold. For the same molecule, the binding result in test [5] is recorded as “binds”.

B2: MOR042596 (antibody, human IgG1, kappa, L234A L235A, V domains shown)
VH: B1 VH
VL: DIQMTQSPSSLSASVGDRVTITCRASQDISNYLAWYQQKPGKAPKLLIYRASSLQSGVPSRFSGSGSGTDFTLTISSLQPEDFATYYCQQHGHSPTTFGQGTKVEIKR
notes: full IgG; also called MOR42596
The molecule B2 displayed a Kd in test [6] of 6.6 nM.
